One block for each substance: values may come before it.
What was measured:
Experiment in all cases: cross-linking
[1] = target: Recombinant full-length human apolipoprotein A-I L159R (Finnish variant) (human)
[2] = target: Recombinant full-length human apolipoprotein A-I L170P (human)
[3] = target: Recombinant full-length human apolipoprotein A-I F71Y (human)

stoichiometry N [1]: 2
Substance: Recombinant full-length human apolipoprotein A-I L159R (Finnish variant) (natural protein)

stoichiometry N [2]: 2
Substance: Recombinant full-length human apolipoprotein A-I L170P (natural protein)

stoichiometry N [3]: 2
Substance: Recombinant full-length human apolipoprotein A-I F71Y (natural protein)
